In patent US20110152176A1, “AGR-MEDIATED INHIBITION AND DISPERSAL OF BIOFILMS” (priority 2008, published 2011):

Assays:
SH1000 biofilm = assay: Microtiter plate biofilm formation; type: cell-based, Staphylococcus aureus; conditions: proteinase K added to SH1000 (data not shown)
Description: (§1) Biofilm experiments. Microtiter plate biofilms were performed as described (Shanks et al., 2005) except that the plates were incubated at 37° C. with shaking at 200 rpm for 12 hours. For flow cell experiments, AIPs were generated using the DnaB intein method, and the AIP concentrations were determined as previously described (Malone et al., 2007). AIPs stocks (20 mM) were stored in 100 mM phosphate (pH 7), 50 mM NaC1, 1 mM tris(2-carboxyethyl) phosphine (TCEP) and were diluted into the biofilm flow medium to a final concentration of 50 nM. When required, […] of erythromycin and/or chloramphenicol were added to the flow cell media to maintain plasmids. The growth medium for flow cell biofilms consisted of 2% TSB plus 0.2% glucose unless otherwise indicated. Flow cell biofilm experiments and confocal microscopy were performed as previously described (Yarwood et al., 2004). Flow cells were inoculated with overnight cultures diluted 1:100 in sterile water and laminar flow (170 ml/min) was initiated after one hour incubation. […] Biofilm biomass was quantified with the COMSTAT program (Heydorn et al., 2000) and percent biomass detached was calculated by subtracting biomass present at day 4 from day 2. To quantitate the number of bacteria detaching from a biofilm, 1 ml of flow cell effluent was collected on ice at indicated time points. […]

S. aureus SH1000 biofilm = assay: Flow cell biofilm detachment (CLSM, COMSTAT biomass, effluent CFU); type: cell-based, Staphylococcus aureus; conditions: SH1000 2-day biofilm, proteinase K 2 mg/mL
Description: as §1, with “2004).” for “2004). Flow cells were inoculated with overnight cultures diluted 1:100 in sterile water and laminar flow (170 ml/min) was initiated after one hour incubation.”
AIP detaches S. aureus biofilms. […] To confirm that AIP-I caused detachment, the inventors counted viable S. aureus cells in the effluent media (FIG. 2C). […]

B1: proteinase K: protease enzyme (Sigma-Aldrich) suspended in water and added to the media reservoir (protein, UniProt P06873 106-384, looked up)
Proteinase K: AAQTNAPWGLARISSTSPGTSTYYYDESAGQGSCVYVIDTGIEASHPEFEGRAQMVKTYYYSSRDGNGHGTHCAGTVGSRTYGVAKKTQLFGVKVLDDNGSGQYSTIIAGMDFVASDKNNRNCPKGVVASLSLGGGYSSSVNSAAARLQSSGVMVAVAAGNNNADARNYSPASEPSVCTVGASDRYDRRSSFSNYGSVLDIFGPGTSILSTWIGGSTRSISGTSMATPHVAGLAAYLMTLGKTTAASACRYIADTANKGDLSNIPFGTVNLLAYNNYQA
biofilm development in microtiter plate (SH1000 biofilm): biofilms were unable to develop
biofilm detachment observed by CLSM (S. aureus SH1000 biofilm): rapid detachment over 12 hrs
